Measured values published in the supplement of paper PMC11780869.

Tested on: Bacillus subtilis
Test: cleaved RNA product abundance (RNA/gDNA barcode ratio) relative to median wild-type variant (ratio to wild type); higher = more accumulation of the downstream cleavage product
How it was run: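 Truncated aprE or tetM reporter mRNAs with barcoded RNase Y cleavage-site windows, mutagenized from oligos at a 9% error rate, sat in the B. subtilis chromosome. Cells grew in LB at 37°C from OD600 0.0003 to 0.3. Gel-selected cleaved RNA was reverse transcribed and its barcodes sequenced with those from genomic DNA, collapsing by UMI. Cleaved product abundance equals the RNA:gDNA barcode ratio per construct over the median construct with the unmutated site.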

[1] = experiment (reporter, strain, medium): exp 4a: truncated aprE reporter, strain BJT201 with 2% xylose (RNase J1 expressed), cleavage site: cggR-gapA (positions -7 to +36 mutated)
[2] = experiment (reporter, strain, medium): exp 2b: truncated aprE reporter, strain BJT200, cleavage site: cggR-gapA (positions -7 to +36 mutated)
[3] = experiment (reporter, strain, medium): exp 8a: truncated aprE reporter, strain BJT201 with 2% xylose (RNase J1 expressed), cleavage site: glnRA (positions -5 to +31 mutated)

ACAGACGAAGGAGCCGCAAAGAAGTGATTAAGGGATGAATAATCCCTCTATATAAATATCTCTCACTTATTTAAA
cleaved RNA product abundance [1]: 0.377

ACAGACGAAGGAGCCGCAAAGATGTTATTAAGGGATCAATAATCCCTCAATATAAATATCTCTCACTTATTTAAA
cleaved RNA product abundance [2]: 0.708
cleaved RNA product abundance [1]: 1.08

CGACATGTCCCGCTTCTTTCATTACTCCGTTAGCAACTGTTTTGCTATTTACATTTACCTTTTAAGAGGAGGAAT
cleaved RNA product abundance [3]: 0.151

ACAGACGAAGGAGCCGCAATGAAGTAATTAAGGGATGAATAATCCCTCAATATAAATATCTCTCACTTATTTAAA
cleaved RNA product abundance [1]: 0.364

CGACATGTCCCGCTTCTTTCATTAATCCTTTAGCAACTGCTTTGCTATATACATTTACCTTTTAAGAGGAGGAAT
cleaved RNA product abundance [3]: 0.292

ACAGACGAAGGAGCCGCAAAGAAGTGATTAAGGGATGAATAATCCCTCAAAATAAATATCTCTCACTTATTTAAA
cleaved RNA product abundance [1]: 0.258

CGACATGTCCCGCTTCTTTCATTAATCCGTTAGCAACTGTTTTGCTATATATATATACCTTTTAAGAGGAGGAAT
cleaved RNA product abundance [3]: 1.12

ACAGACGAAGGAGCCGCAAAGAACTTATTAAGGGATGAATAATCCCTCAATATATATATCTCTCACTTATTTAAA
cleaved RNA product abundance [1]: 0.454

ACAGACGAAGGAGCCGCATAGAAGTTATTAAGGGATGAATAATCCATCAATATAAATATCTCTCACTTATTTAAA
cleaved RNA product abundance [2]: 0.112
cleaved RNA product abundance [1]: 0.245

ACAGACGAAGGAGCCGCAAAGAAGTTATTAATGGATGAATAACCCCTCAATATAAATATCTCTCACTTATTTAAA
cleaved RNA product abundance [2]: 0.0893
cleaved RNA product abundance [1]: 0.0925

CGACATGTCCCGCTTCTTTCATTAATCCTTTAGCAACTGTTTTGCGATATACATTTACTTTTTAAGAGGAGGAAT
cleaved RNA product abundance [3]: 0.438

ACAGACGAAGGAGCCGCAAAAAAGTTATTACGGGATGAATAATCCCTCAATATAAATATCTCTCACTTATTTAAA
cleaved RNA product abundance [2]: 0.329
cleaved RNA product abundance [1]: 0.364

ACAGACGAAGGAGCCGCAAAGAAGTTATTAAGGGTTGAATAATCTCTCAATATAAATATCTCTCACTTATTTAAA
cleaved RNA product abundance [1]: 0.244

ACAGACGAAGGAGCCGCAAAGTACTTATTAAGGGATGAATAATCCCTCAATATAAATATCTCTCACTTATTTAAA
cleaved RNA product abundance [2]: 0.437
cleaved RNA product abundance [1]: 0.803

ACAGACGAAGGAGCCGCAAAGAAGTTATTAAAGGATGAATAATCCCTCAATATAAACATCTCTCACTTATTTAAA
cleaved RNA product abundance [1]: 0.206

ACAGACGAAGGAGCCGCTAAGAAGTTCTTAAGGGATGAATAATCCCTCAATACAAATATCTCTCACTTATTTAAA
cleaved RNA product abundance [1]: 0.0591

ACAGACGAAGGAGCCGCAAAGAAGTGATTAAGGGATGAATAATCCCACAATATAAATATCTCTCACTTATTTAAA
cleaved RNA product abundance [1]: 0.226

CGACATGTCCCGCTTCTTTCATTAATCCGTTAGCAACTGTTTTGCTAAATACCTTTACCTTTTAAGAGGAGGAAT
cleaved RNA product abundance [3]: 0.165

ACAGACGAAGGAGCCGCAAAGAAGTTATTAAGGGATGCATAATCCCTAAATATAAATATCTCTCACTTATTTAAA
cleaved RNA product abundance [1]: 0.76

CGACATGTCCCGCTTCTTTCATTAATCCGTTACCAACTATTTTGCTATATACATTTACCTTTTAAGAGGAGGAAT
cleaved RNA product abundance [3]: 0.178

CGACATGTCCCGCTTCTTTCATTAATCCATTAGAAACTGTTTTTCTATTTACATTTACCTTTTAAGAGGAGGAAT
cleaved RNA product abundance [3]: 0.127

ACAGACGAAGGAGCCGCAAAGAAGTTATCAAGGGATTAATAATCCCTCAATATAAATATCTCTCACTTATTTAAA
cleaved RNA product abundance [1]: 0.301

ACAGACGAAGGAGCCGCAAAGAAGTTAATAAGGGACGAATAATCCCTCAATATAAATATCTCTCACTTATTTAAA
cleaved RNA product abundance [2]: 0.154
cleaved RNA product abundance [1]: 0.164

ACAGACGAAGGAGCCGCAAAGAAGTTATTAAGGGATGAACAATCCTTCAATATAAATATCTCTCACTTATTTAAA
cleaved RNA product abundance [1]: 0.58

ACAGACGAAGGAGCCGCAAAGTAGTTATTAACGGATGAATAATCCCTCAATATAAATATCTCTCACTTATTTAAA
cleaved RNA product abundance [1]: 0.164

ACAGACGAAGGAGCCGCAAAGACGTTATTAAGGGATGAATCATCCCTCAATATAAATATCTCTCACTTATTTAAA
cleaved RNA product abundance [2]: 0.89
cleaved RNA product abundance [1]: 0.771
